Assays:
[1] = molecular target: T1, c-Met-Fc (#358-MT/CF, R&D Systems) (human, UniProt P08581 25-932); assay: SPR, Biacore T100; ME-03S captured on human Fab binder, c-Met-Fc injected
T1 construct: also called human c-Met/Fc fusion protein (R&D Systems); not shown: Fc part of the bought fusion
Experimental: (§1) In addition, the affinities of the prepared anti-c-Met/anti-EGFR bispecific antibody toward two types of antigens (c-Met/EGFR) were each identified using Biacore T100 (GE). A human Fab binder (GE Healthcare) was immobilized at the surface of a CM5 chip (#BR-1005-30, GE) according to the manufacturer's specifications. […] 10 mM Glycine-HCl (pH 1.5) solution was injected thereto to regenerate the surface. In order to measure affinity, the data obtained from this experiment was fitted using BIAevaluation software (GE Healthcare, Biacore T100 evaluation software).

[2] = molecular target: T2, EGFR-Fc (#344-ER, R&D Systems) (UniProt P00533 25-645); assay: SPR, Biacore T100; ME-03S captured on human Fab binder, EGFR-Fc injected
T2 construct: Bought reagent; not shown: Fc part of the bought fusion
Experimental: as §1

T1 sequence (P08581 25-932 limits assumed): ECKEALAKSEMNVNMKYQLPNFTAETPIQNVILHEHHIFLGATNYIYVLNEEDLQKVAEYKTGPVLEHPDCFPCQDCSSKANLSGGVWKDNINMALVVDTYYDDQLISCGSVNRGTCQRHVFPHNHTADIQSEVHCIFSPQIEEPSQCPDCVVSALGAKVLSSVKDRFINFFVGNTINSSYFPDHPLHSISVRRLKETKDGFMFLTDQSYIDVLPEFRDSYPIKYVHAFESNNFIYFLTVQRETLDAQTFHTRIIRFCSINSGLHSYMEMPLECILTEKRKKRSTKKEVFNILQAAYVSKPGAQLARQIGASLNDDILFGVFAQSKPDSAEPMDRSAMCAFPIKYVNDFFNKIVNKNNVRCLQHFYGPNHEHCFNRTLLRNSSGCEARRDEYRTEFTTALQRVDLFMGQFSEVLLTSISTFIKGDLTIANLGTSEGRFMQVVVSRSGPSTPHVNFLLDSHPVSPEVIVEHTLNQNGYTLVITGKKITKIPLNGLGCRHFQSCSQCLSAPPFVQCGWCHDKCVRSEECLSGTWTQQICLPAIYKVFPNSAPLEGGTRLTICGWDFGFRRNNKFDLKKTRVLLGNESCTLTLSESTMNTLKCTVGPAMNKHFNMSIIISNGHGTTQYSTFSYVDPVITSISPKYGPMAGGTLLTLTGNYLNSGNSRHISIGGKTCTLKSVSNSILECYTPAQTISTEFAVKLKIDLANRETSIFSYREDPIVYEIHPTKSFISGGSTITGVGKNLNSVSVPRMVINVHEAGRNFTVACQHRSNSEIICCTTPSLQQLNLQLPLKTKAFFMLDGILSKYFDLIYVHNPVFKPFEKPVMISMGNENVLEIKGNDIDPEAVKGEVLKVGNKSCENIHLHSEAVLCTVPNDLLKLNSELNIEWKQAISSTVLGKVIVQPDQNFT

B1: anti-c-Met/anti-EGFR bispecific antibody ME-03S (bispecific antibody)
heavy: EVQLVESGGGLVQPGGSLRLSCAASGFTFTDYYMSWVRQAPGKGLEWLGFIRNKANGYTTEYSASVKGRFTISRDNSKNTLYLQMNSLRAEDTAVYYCARDNWFAYWGQGTLVTVSSASTKGPSVFPLAPCSRSTSESTAALGCLVKDYFPEPVTVSWNSGALTSGVHTFPAVLQSSGLYSLSSVVTVPSSNFGTQTYTCNVDHKPSNTKVDKTVERKCCVECPPCPAPPVAGPSVFLFPPKPKDTLMISRTPEVTCVVVDVSHEDPEVQFNWYVDGVEVHNAKTKPREEQFNSTFRVVSVLTVVHQDWLNGKEYKCKVSNKGLPAPIEKTISKTKGQPREPQVYTLPPSREEMTKNQVSLTCLVKGFYPSDIAVEWESNGQPENNYKTTPPMLDSDGSFFLYSKLTVDKSRWQQGNVFSCSVMHEALHNHYTQKSLSLSPGKGGGGSGGGGSQVQLVQSGAEVKKPGSSVKVSCKASGFTFTDYKIHWVRQAPGQCLEWMGYINPNSGYSTYASKFQGRVTITADKSTSTAYMELSSLRSEDTAVYYCARLSPGGYYVMDAWGQGTTVTVSSGGGGSGGGGSGGGGSDIQMTQSPSSLSASVGDRVTITCRASQGINNYLNWYQQKPGKAPKLLIYNTNNLQTGVPSRFSGSGSGTEFTLTISSLQPEDEATYYCLQHNSFPTFGQCTKLEIKRT
light: DIQMTQSPSSLSASVGDRVTITCKSSQSLLASGNQNNYLAWYQQKPGKAPKMLIIWASTRVSGVPSRFSGSGSGTDFTLTISSLQPEDFATYYCQQSYSRPYTFGQGTKVEIKRTVAAPSVFIFPPSDEQLKSGTASVVCLLNNFYPREAKVQWKVDNALQSGNSQESVTEQDSKDSTYSLSSTLTLSKADYEKHKVYACEVTHQGLSSPVTKSFNRGEC
Q: With B1 as the binder, how does the Kd [1] read?
A: The Kd was 0.14 nM.

Q: What about the koff [1] of the same binder?
A: Its koff is 9.3e-05 s⁻¹.

Q: And the kon [1]?
A: Its kon is 660000 M⁻¹ s⁻¹.

Q: And the Kd [2]?
A: Its Kd is 0.12 nM.

Q: And the koff [2]?
A: The koff was 2.7e-05 s⁻¹.

Q: What about the kon [2] of the same binder?
A: The kon was 240000 M⁻¹ s⁻¹.

Source: patent publication US20140302029A1 (SAMSUNG ELECTRONICS, published 2014)
